Results as given in patent publication US20080274978A1 (POSTECH FOUNDATION, published 2008).
Where no end group is shown, it is not given here. [ ]: non-standard residue; d: D form.

B1: RWWw (peptide)
peptide: RWW[dW]
B2: wWRWWW (peptide)
peptide: [dW]WRWWW
B3: WWWWWR (peptide)
peptide: WWWWWR
B4: LWWWWW (peptide)
peptide: LWWWWW
B5: WWWWWM (peptide)
peptide: WWWWWM
B6: wWRWWM (peptide)
peptide: [dW]WRWWM
modifications: not fully specified; printed as wWRWWM
B7: LRWWWW (peptide)
peptide: LRWWWW
B8: RWWM (peptide)
peptide: RWWM
B9: WWWRWW (peptide)
peptide: WWWRWW
B10: WWRWWW (peptide)
peptide: WWRWWW
B11: WWWWMR (peptide)
peptide: WWWWMR
B12: WRRWWW (peptide)
peptide: WRRWWW
B13: Arg-Arg-Trp-Trp-Trp-Trp-CONH2 (RRWWWW, RRW^4) (peptide)
peptide: RRWWWW-NH2
B14: Arg-His-Trp-Trp-Trp-Trp-CONH2 (RHWWWW, RHW^4) (peptide)
peptide: RHWWWW-NH2
B15: Trp-Arg-Trp-Trp-Trp-Trp-CONH2 (WRWWWW, WRW^4) (peptide)
peptide: WRWWWW-NH2
B16: Asp-Arg-Trp-Trp-Trp-Trp-CONH2 (DRWWWW, DRW^4) (peptide)
peptide: DRWWWW-NH2
B17: WRW (peptide)
peptide: WRW
B18: WWWWRW (peptide)
peptide: WWWWRW
B19: WWWWWW (peptide)
peptide: WWWWWW
B20: WWRWWM (peptide)
peptide: WWRWWM
B21: RWWW (peptide)
peptide: RWWW
B22: WWWM (peptide)
peptide: WWWM
B23: WWWw (peptide)
peptide: WWW[dW]
B24: WRWW (peptide)
peptide: WRWW
B25: WWWWWw (peptide)
peptide: WWWWW[dW]
B26: WWWW (peptide)
peptide: WWWW

Legend:
[1] = biological target: T1, Formyl peptide receptor like 1 (FPRL1) (human, UniProt P25090 1-351); assay: cell-based or functional assay
T1 sequence (looked up): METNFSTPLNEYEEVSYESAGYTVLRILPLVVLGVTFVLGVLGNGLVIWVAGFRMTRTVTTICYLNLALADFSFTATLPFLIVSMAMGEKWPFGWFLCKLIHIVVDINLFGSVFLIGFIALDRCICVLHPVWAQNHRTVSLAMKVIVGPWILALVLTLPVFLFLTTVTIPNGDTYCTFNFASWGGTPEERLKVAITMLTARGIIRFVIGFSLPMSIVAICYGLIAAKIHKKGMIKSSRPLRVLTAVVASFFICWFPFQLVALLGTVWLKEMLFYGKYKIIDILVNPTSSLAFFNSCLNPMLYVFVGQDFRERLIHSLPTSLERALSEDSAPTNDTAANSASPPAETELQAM

[2] = biological target: T1, Formyl peptide receptor like 1 (FPRL1); assay: cell-based or functional assay; remark: listed apart in the source
[3] = biological target: T1, Formyl peptide receptor like 1 (FPRL1); assay: displacement of 125I-WKYMVm (50 pM) from FPRL1-expressing RBL-2H3 cells
Procedure: Ligand binding analysis was performed as previously described (24). Briefly, FPR-expressing RBL-2H3 cells were seeded at 1×10⁵ cells per well into a 24 well plate and cultured overnight. […] The samples were then washed 5 times with ice-cold binding buffer, and 200 μl of lysis buffer (20 mM Tris, pH 7.5, 1% Triton X-100) was added to each well. After 20 min at room temperature, the lysates were collected and counted using a γ-ray counter (24).

| Ca^2+ (FPRL1) IC50 [1] [nM] | antagonistic activity on intracellular calcium concentration increase, relative to WRWWWW (SEQ ID NO:4) [2] [times] | IC50 [3] [nM] | Binder |
| --- | --- | --- | --- |
| > 10000 |  |  | B1 |
| 110 |  |  | B2 |
| 220 |  |  | B3 |
| 500 |  |  | B4 |
| 130 |  |  | B5 |
| 8.2 | ~100 |  | B6 |
| 1100 |  |  | B7 |
| 650 |  |  | B8 |
| 470 |  |  | B9 |
| 58 |  |  | B10 |
| 5700 |  |  | B11 |
| > 10000 |  |  | B12 |
|  |  | 2400 | B13 |
|  |  | 3200 | B14 |
| 1000 |  | 230 | B15 |
|  |  | 3400 | B16 |
| > 10000 |  |  | B17 |
| 2700 |  |  | B18 |
| > 10000 |  |  | B19 |
| 83 |  |  | B20 |
| 600 |  |  | B21 |
| 5900 |  |  | B22 |
| > 10000 |  |  | B23 |
| > 10000 |  |  | B24 |
| > 10000 |  |  | B25 |
| 860 |  |  | B26 |
